From PMC9278117
pKd: −log10 of the molar value.

What was measured:
4A8 monoclonal antibody = assay: BLI
CB6 monoclonal antibody = assay: BLI

SARS-CoV-2 S1-SpyTag monomer (from UniProt P0DTC2 16-685) (domain or fragment)
pKd (4A8 monoclonal antibody): 7.47 | pKd (CB6 monoclonal antibody): 8.26
